Values of other authors in patent US20180134803A1, “TREATMENT OF HER2-POSITIVE BREAST CANCER” (Genentech, Inc., priority 2016, published 2018).

How the values were obtained:
[1] = tested on: incurable, locally advanced, recurrent or metastatic solid tumors
[2] = in vivo

In the case of “Pertuzumab: antibody comprising the variable light and variable heavy amino acid sequences in SEQ ID NOs: 7 and 8; HER dimerization inhibitor”, the confirmed partial responses ([1]; Phase I, IV every 3 weeks) is given as “Two”, the “tumor regression, patients evaluable for response” value ([1]; Phase I, IV every 3 weeks) is given as 3 of 20 and the tolerability ([1]; in vivo, iv) is given as “generally well tolerated”. For the same substance, the mean clearance [2] was 2.69 to 3.74 mL/day/kg and the “mean terminal elimination half-life” value [2] was 15.3 to 27.6 days.
